B1: SETD8 (parent)
chain: KKAQGKTQQNRKLTDFYPVRRSSR

Variants of: B1
Experiment: protein stability index of a GFP-peptide fusion (GPS, HEK-293T) (PSI 1-6); higher = more stable
Conditions: c terminus: a fixed tail appended
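Note: lentivirally expressed fusions sorted by FACS into six bins by GFP to DsRed ratio, PSI derived from sequencing read proportions per bin multiplied by bin number.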

Variant | protein stability index
KKAQGKTQQNPKLTDFYPVRRSSR | 2.61
KKAQGKTQQNIKLTDFYPVRRSSR | 2.45
KKAQGKTQQNQKLTDFYPVRRSSR | 2.71
KKAQGKTQQNTKLTDFYPVRRSSR | 2.19
KKAQGKTQQNAKLTDFYPVRRSSR | 1.6
KKAQGKTQQNWKLTDFYPVRRSSR | 2.76
KKAQGKTQQNEKLTDFYPVRRSSR | 2.15
KKAQGKTQQNLKLTDFYPVRRSSR | 2.43
KKAQGKTQQNHKLTDFYPVRRSSR | 3.68
KKAQGKTQQNYKLTDFYPVRRSSR | 2.94
KKAQGKTQQNFKLTDFYPVRRSSR | 2.91
KKAQGKTQQNDKLTDFYPVRRSSR | 3.45
KKAQGKTQQNSKLTDFYPVRRSSR | 2.85
KKAQGKTQQNNKLTDFYPVRRSSR | 2.86
KKAQGKTQQNVKLTDFYPVRRSSR | 1.86
KKAQGKTQQNGKLTDFYPVRRSSR | 1.5
KKAQGKTQQNRKLTDMYPVRRSSR | 3.81
KKAQGKTQQNRKLTDSYPVRRSSR | 3.07
KKAQGKTQQNRKLTDAYPVRRSSR | 2.54
KKAQGKTQQNRKLTDHYPVRRSSR | 2.33
KKAQGKTQQNRKLTDIYPVRRSSR | 2.99
KKAQGKTQQNRKLTDGYPVRRSSR | 2.74
KKAQGKTQQNRKLTDPYPVRRSSR | 3.07
KKAQGKTQQNRKLTDTYPVRRSSR | 3.17

Variant | protein stability index
KKAQGKTQQNRKLTDNYPVRRSSR | 4.28
KKAQGKTQQNRKLTDEYPVRRSSR | 4.51
KKAQGKTQQNRKLTDCYPVRRSSR | 2.71
KKAQGKTQQNRKLTDDYPVRRSSR | 2.58
KKAQGKTQQNRKLTDQYPVRRSSR | 1.76
KKAQGKTQQNRKLTDYYPVRRSSR | 3.29
KKAQGKFQQNRKLTDFYPVRRSSR | 1.95
KKAQGKHQQNRKLTDFYPVRRSSR | 2.88
KKAQGKSQQNRKLTDFYPVRRSSR | 2.26
KKAQGKNQQNRKLTDFYPVRRSSR | 3.33
KKAQGKWQQNRKLTDFYPVRRSSR | 2.88
KKAQGKLQQNRKLTDFYPVRRSSR | 3.08
KKAQGKQQQNRKLTDFYPVRRSSR | 2.66
KKAQGKRQQNRKLTDFYPVRRSSR | 3.38
KKAQGKEQQNRKLTDFYPVRRSSR | 2.9
KKAQGKMQQNRKLTDFYPVRRSSR | 2.41
KKAQGKDQQNRKLTDFYPVRRSSR | 3.32
KKAQGKTQQNRKLTDFKPVRRSSR | 4.5
KKAQGKTQQNRKLTDFMPVRRSSR | 3.05
KKAQGKTQQNRKLTDFEPVRRSSR | 3.39
KKAQGKTQQNRKLTDFDPVRRSSR | 4.52
KKAQGKTQQNRKLTDFCPVRRSSR | 3.58
KKAQGKTQQNRKLTDFWPVRRSSR | 1.41
KKAQGKTQQNRKLTDFQPVRRSSR | 4.09

Variant | protein stability index
KKAQGKTQQNRKLTDFNPVRRSSR | 3.09
KKAQGKTQQNRKLTDFPPVRRSSR | 5.8
KKAQGKTQQNRKLTDFTPVRRSSR | 2.06
KKAQGKTQQNRKLTDFVPVRRSSR | 3.37
KKAQGKTQQNRKLTDFLPVRRSSR | 2.84
KKAQGKTQQNRKLTDFFPVRRSSR | 2.72
KKAQGKTQQNRKLTWFYPVRRSSR | 4.09
KKAQGKTQQNRKLTIFYPVRRSSR | 3.18
KKAQGKTQQNRKLTPFYPVRRSSR | 3.1
KKAQGKTQQNRKLTYFYPVRRSSR | 2.77
KKAQGKTQQNRKLTHFYPVRRSSR | 2.42
KKAQGKTQQNRKLTRFYPVRRSSR | 3.62
KKAQGKTQQNRKLTQFYPVRRSSR | 2.36
KKAQGKTQQNRKLTGFYPVRRSSR | 3.23
KKAQGKTQQNRKLTAFYPVRRSSR | 2.85
KKAQGKTQQNRKLTFFYPVRRSSR | 2.74
KKAQGKTQQNRKLTCFYPVRRSSR | 2.52
KKAQGKTQQNRKLTLFYPVRRSSR | 2.87
KKAQGKTQQNRKLTNFYPVRRSSR | 2.92
KKAQGKTQQNRKLTTFYPVRRSSR | 3.5
KKAQGKTQQNRKLTEFYPVRRSSR | 4.29
KKAQGKTQQNRKLTSFYPVRRSSR | 3.12
KKAQGKTQQNRKLTVFYPVRRSSR | 2.72
KKAQGKTQQNRKLTMFYPVRRSSR | 2.43

Variant | protein stability index
KKAQGKTQANRKLTDFYPVRRSSR | 3.26
KKAQGKTQLNRKLTDFYPVRRSSR | 2.65
KKAQGKTQKNRKLTDFYPVRRSSR | 3.66
KKAQGKTQRNRKLTDFYPVRRSSR | 2.67
KKAQGKTQSNRKLTDFYPVRRSSR | 2.36
KKAQGKTQGNRKLTDFYPVRRSSR | 1.89
KKAQGKTQPNRKLTDFYPVRRSSR | 1.78
KKAQGKTQDNRKLTDFYPVRRSSR | 2.83
KKAQGKTQHNRKLTDFYPVRRSSR | 4.29
KKAQGKTQYNRKLTDFYPVRRSSR | 2.92
KKAQGKTQCNRKLTDFYPVRRSSR | 3.93
KKAQGKTQMNRKLTDFYPVRRSSR | 2.25
KKAQGKTQENRKLTDFYPVRRSSR | 3.12
KKAQGKTQQNRKSTDFYPVRRSSR | 2.79
KKAQGKTQQNRKRTDFYPVRRSSR | 5.53
KKAQGKTQQNRKNTDFYPVRRSSR | 3.26
KKAQGKTQQNRKETDFYPVRRSSR | 2.77
KKAQGKTQQNRKKTDFYPVRRSSR | 5.04
KKAQGKTQQNRKVTDFYPVRRSSR | 2.79
KKAQGKTQQNRKPTDFYPVRRSSR | 3.64
KKAQGKTQQNRKDTDFYPVRRSSR | 4.69
KKAQGKTQQNRKTTDFYPVRRSSR | 3.51
KKAQGKTQQNRKHTDFYPVRRSSR | 3.83
KKAQGKTQQNRKFTDFYPVRRSSR | 3.52

Variant | protein stability index
KKAQGKTQQNRKCTDFYPVRRSSR | 4.07
KKAQGKTQQNRKGTDFYPVRRSSR | 3.42
KKAQGKTQQNRKATDFYPVRRSSR | 2.67
KKAQGKTQQNRKYTDFYPVRRSSR | 3.47
KKAQGKTQQNRKQTDFYPVRRSSR | 3.79
KKAQGKTQQNRKWTDFYPVRRSSR | 4.33
KKAQGKTQQNRKLTDFYPFRRSSR | 2.42
KKAQGKTQQNRKLTDFYPLRRSSR | 3.11
KKAQGKTQQNRKLTDFYPARRSSR | 4.57
KKAQGKTQQNRKLTDFYPPRRSSR | 2.88
KKAQGKTQQNRKLTDFYPCRRSSR | 3.26
KKAQGKTQQNRKLTDFYPHRRSSR | 3.63
KKAQGKTQQNRKLTDFYPIRRSSR | 3.13
KKAQGKTQQNRKLTDFYPMRRSSR | 3.01
KKAQGKTQQNRKLTDFYPGRRSSR | 4.08
KKAQGKTQQNRKLTDFYPNRRSSR | 3.29
KKAQGKTQQNRKLTDFYPDRRSSR | 3.32
KKAQGKTQQNRKLTDFYPERRSSR | 3.84
KKAQGKTQQNRKLTDFYPKRRSSR | 2.02
KKAQGKTQQNRMLTDFYPVRRSSR | 2.55
KKAQGKTQQNRDLTDFYPVRRSSR | 2.98
KKAQGKTQQNRYLTDFYPVRRSSR | 3
KKAQGKTQQNRTLTDFYPVRRSSR | 2.4
KKAQGKTQQNRGLTDFYPVRRSSR | 2.76

Variant | protein stability index
KKAQGKTQQNRFLTDFYPVRRSSR | 1.93
KKAQGKTQQNRLLTDFYPVRRSSR | 3.41
KKAQGKTQQNRSLTDFYPVRRSSR | 2.64
KKAQGKTQQNRRLTDFYPVRRSSR | 1.86
KKAQGKTQQNRELTDFYPVRRSSR | 3.35
KKAQGKTQQNRVLTDFYPVRRSSR | 2.32
KKAQGKTQQNRHLTDFYPVRRSSR | 1.53
KKAQGKTQQNRNLTDFYPVRRSSR | 2.81
KKAQGKTQQNRPLTDFYPVRRSSR | 2.97
KKAQGKTQQARKLTDFYPVRRSSR | 1.64
KKAQGKTQQYRKLTDFYPVRRSSR | 3.04
KKAQGKTQQSRKLTDFYPVRRSSR | 2.35
KKAQGKTQQDRKLTDFYPVRRSSR | 4.38
KKAQGKTQQCRKLTDFYPVRRSSR | 3.63
KKAQGKTQQLRKLTDFYPVRRSSR | 2.39
KKAQGKTQQMRKLTDFYPVRRSSR | 2.39
KKAQGKTQQPRKLTDFYPVRRSSR | 2.77
KKAQGKTQQGRKLTDFYPVRRSSR | 1.42
KKAQGKTQQTRKLTDFYPVRRSSR | 2.17
KKAQGKTQQRRKLTDFYPVRRSSR | 2.74
KKAQGKTQQIRKLTDFYPVRRSSR | 3.4
KKAQGKTQQERKLTDFYPVRRSSR | 2.67
KKAQGKTQQHRKLTDFYPVRRSSR | 3.49
KKAQGKTDQNRKLTDFYPVRRSSR | 3.23

Variant | protein stability index
KKAQGKTHQNRKLTDFYPVRRSSR | 2.59
KKAQGKTPQNRKLTDFYPVRRSSR | 2.94
KKAQGKTLQNRKLTDFYPVRRSSR | 2.41
KKAQGKTAQNRKLTDFYPVRRSSR | 2.45
KKAQGKTGQNRKLTDFYPVRRSSR | 2.28
KKAQGKTVQNRKLTDFYPVRRSSR | 3.2
KKAQGKTFQNRKLTDFYPVRRSSR | 3.67
KKAQGKTNQNRKLTDFYPVRRSSR | 2.89
KKAQGKTMQNRKLTDFYPVRRSSR | 1.89
KKAQGKTYQNRKLTDFYPVRRSSR | 2.02
KKAQGKTCQNRKLTDFYPVRRSSR | 3.34
KKAQGKTWQNRKLTDFYPVRRSSR | 3.29
KKAQGKTSQNRKLTDFYPVRRSSR | 2.69
KKAQGKTEQNRKLTDFYPVRRSSR | 1.69
KKAQGKTRQNRKLTDFYPVRRSSR | 2.39
KKAQGKTQQNRKLTDFYMVRRSSR | 3.82
KKAQGKTQQNRKLTDFYNVRRSSR | 1.86
KKAQGKTQQNRKLTDFYCVRRSSR | 2.47
KKAQGKTQQNRKLTDFYDVRRSSR | 3.38
KKAQGKTQQNRKLTDFYQVRRSSR | 1.74
KKAQGKTQQNRKLTDFYAVRRSSR | 3.16
KKAQGKTQQNRKLTDFYRVRRSSR | 2.54
KKAQGKTQQNRKLTDFYLVRRSSR | 3.36
KKAQGKTQQNRKLTDFYYVRRSSR | 2.51

Variant | protein stability index
KKAQGKTQQNRKLTDFYFVRRSSR | 2.61
KKAQGKTQQNRKLTDFYIVRRSSR | 2.66
KKAQGKTQQNRKLTDFYTVRRSSR | 3.77
KKAQGKTQQNRKLTDFYWVRRSSR | 3.18
KKAQGKTQQNRKLMDFYPVRRSSR | 1.79
KKAQGKTQQNRKLSDFYPVRRSSR | 2.72
KKAQGKTQQNRKLVDFYPVRRSSR | 3.67
KKAQGKTQQNRKLLDFYPVRRSSR | 3.72
KKAQGKTQQNRKLADFYPVRRSSR | 3.99
KKAQGKTQQNRKLEDFYPVRRSSR | 4.32
KKAQGKTQQNRKLPDFYPVRRSSR | 2.4
KKAQGKTQQNRKLIDFYPVRRSSR | 2.63
KKAQGKTQQNRKLNDFYPVRRSSR | 3.49
KKAQGKTQQNRKLQDFYPVRRSSR | 3.33
KKAQGKTQQNRKLGDFYPVRRSSR | 2.68
KKAQGKTQQNRKLYDFYPVRRSSR | 2.65
KKAQGKTQQNRKLRDFYPVRRSSR | 3.11
KKAQGKTQQNRKLDDFYPVRRSSR | 4.21
KKAQGKTQQNRKLWDFYPVRRSSR | 3.4
KKAQGKTQQNRKLHDFYPVRRSSR | 3.1
